Test results as given in patent publication US20030088884A1.

Legend:
[1] = target: human LGR8, recombinant, expressed in 293T cells (human) (UniProt Q8WXD0); experiment: competition with 5 nM biotinylated ovine INSL3 for 293T cells expressing LGR8, 4 C 24 h, 125I-streptavidin detection
[2] = target: human LGR7, long form (LGR7(1), 757 amino acids), recombinant, expressed in 293T cells (human), Q9HBX9; experiment: cell-based or functional assay
human LGR7, long form (LGR7(1), 757 amino acids), recombinant, expressed in 293T cells (human), Q9HBX9, sequence (Q9HBX9 whole entry): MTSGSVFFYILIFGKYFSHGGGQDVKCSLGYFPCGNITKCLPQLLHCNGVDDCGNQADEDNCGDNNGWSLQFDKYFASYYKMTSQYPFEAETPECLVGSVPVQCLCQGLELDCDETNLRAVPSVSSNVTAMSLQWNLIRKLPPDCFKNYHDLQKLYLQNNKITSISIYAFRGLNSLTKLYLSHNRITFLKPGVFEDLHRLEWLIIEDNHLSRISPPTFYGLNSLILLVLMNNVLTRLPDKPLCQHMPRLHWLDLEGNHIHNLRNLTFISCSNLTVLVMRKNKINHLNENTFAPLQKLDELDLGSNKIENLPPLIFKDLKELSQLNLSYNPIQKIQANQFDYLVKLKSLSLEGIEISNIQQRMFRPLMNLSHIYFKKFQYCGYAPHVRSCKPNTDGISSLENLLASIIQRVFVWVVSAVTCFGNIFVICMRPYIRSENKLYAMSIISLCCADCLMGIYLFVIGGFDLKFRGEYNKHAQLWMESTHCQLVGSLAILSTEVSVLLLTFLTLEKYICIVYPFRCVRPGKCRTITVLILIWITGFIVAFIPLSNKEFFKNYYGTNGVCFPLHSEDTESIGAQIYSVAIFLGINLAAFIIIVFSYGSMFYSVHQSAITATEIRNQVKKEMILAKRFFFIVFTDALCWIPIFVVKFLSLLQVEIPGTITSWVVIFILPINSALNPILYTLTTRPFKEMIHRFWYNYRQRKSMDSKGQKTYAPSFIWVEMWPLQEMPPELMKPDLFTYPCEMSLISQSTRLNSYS

UniProt Q8WXD0, sequence (Q8WXD0 whole entry): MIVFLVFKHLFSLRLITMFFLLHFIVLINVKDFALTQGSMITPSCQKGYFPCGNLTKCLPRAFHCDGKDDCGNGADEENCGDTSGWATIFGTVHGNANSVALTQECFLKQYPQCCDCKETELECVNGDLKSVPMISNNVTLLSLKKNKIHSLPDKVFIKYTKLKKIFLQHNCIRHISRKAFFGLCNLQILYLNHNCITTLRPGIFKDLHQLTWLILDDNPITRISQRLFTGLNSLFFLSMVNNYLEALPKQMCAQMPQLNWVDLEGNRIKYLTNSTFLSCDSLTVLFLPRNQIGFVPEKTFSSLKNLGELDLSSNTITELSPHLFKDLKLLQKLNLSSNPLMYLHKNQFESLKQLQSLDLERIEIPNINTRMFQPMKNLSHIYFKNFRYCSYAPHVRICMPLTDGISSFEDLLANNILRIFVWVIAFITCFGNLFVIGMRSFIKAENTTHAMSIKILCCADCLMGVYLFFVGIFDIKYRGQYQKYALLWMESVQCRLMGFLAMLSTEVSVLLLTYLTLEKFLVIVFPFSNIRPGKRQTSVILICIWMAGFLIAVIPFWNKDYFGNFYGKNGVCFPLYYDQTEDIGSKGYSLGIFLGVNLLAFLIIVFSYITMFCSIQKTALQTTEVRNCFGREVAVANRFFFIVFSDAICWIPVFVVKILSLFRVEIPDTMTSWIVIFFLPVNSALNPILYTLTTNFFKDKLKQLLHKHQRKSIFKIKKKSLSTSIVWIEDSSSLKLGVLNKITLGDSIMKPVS

rat INSL3, chemically synthesized (from UniProt Q9WUK0 103-128; Q9WUK0 103-128) (ligand)
ED50 [1]: 12 nM

B1: porcine relaxin, P01348 161-182; P01348 25-56 (ligand)
chain 1: RMTLSEKCCQVGCIRKDIARLC
chain 2: QSTNDFIKACGRELVRLWVEICGSVSWGRTAL
cAMP production by 293T cells expressing human LGR7 [2]: 0.1 nM
